Drawing on publication PMC6424611, this text covers Kd and BI for 30 substances.

Assay [1] has as its target biotinylated RSK1 725-735 peptide, phosphorylated at Ser732 (position -3) (human) (UniProt Q15418). Kind of assay: holdup assay.
Assay [2] has as its target biotinylated RSK1 725-735 peptide, unphosphorylated (human) (UniProt Q15418). Kind of assay: holdup assay.
For assay [3], the target named is biotinylated RSK1 725-735 peptide, phosphorylated at Ser732 (position -3) (human) (UniProt Q15418). As to the kind of experiment: SPR. In general terms: SPR reads the build-up and loss of mass on a sensor chip optically.
The target in assay [4] is biotinylated RSK1 725-735 peptide, unphosphorylated (human) (UniProt Q15418). As to the kind of experiment: SPR.
Assay [5] addresses Scribble PDZ1 (Homo sapiens) (UniProt Q14160). Kind of assay: holdup assay. The conditions noted are these: cited from earlier work.
Assay [6] deals with MBP-fused PDZ domain of GOPC (human) (UniProt Q9HD26). As to the kind of experiment: fluorescence polarisation.
Assay [7] concerns the target MBP-fused PDZ domain 1 of PDZRN3 (human) (UniProt Q9UPQ7). As to the kind of experiment: fluorescence polarisation. (Fluorescence polarisation rises when a labelled molecule tumbles more slowly, as on binding a larger partner.)
Assay [8] addresses MBP-fused PDZ domain of SYNJ2BP (human) (UniProt P57105). As to the kind of experiment: fluorescence polarisation.
The target in assay [9] is MBP-fused PDZ domain of ARHGEF12 (human) (UniProt Q9NZN5). As to the kind of experiment: fluorescence polarisation.

Where only a bound is given, the exact number is not on record here.

Sequence of MBP-fused PDZ domain of SYNJ2BP (human) (P57105 13-100): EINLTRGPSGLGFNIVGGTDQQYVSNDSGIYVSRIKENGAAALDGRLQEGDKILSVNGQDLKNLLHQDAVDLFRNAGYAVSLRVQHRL
Sequence of HPV16 E6 PBM (P03126 whole entry, looked up): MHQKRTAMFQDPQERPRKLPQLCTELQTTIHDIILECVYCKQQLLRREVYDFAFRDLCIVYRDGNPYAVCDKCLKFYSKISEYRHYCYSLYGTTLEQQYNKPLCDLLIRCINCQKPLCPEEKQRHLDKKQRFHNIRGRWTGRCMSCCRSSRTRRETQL
Sequence of MBP-fused PDZ domain 1 of PDZRN3 (human) (Q9UPQ7 249-339): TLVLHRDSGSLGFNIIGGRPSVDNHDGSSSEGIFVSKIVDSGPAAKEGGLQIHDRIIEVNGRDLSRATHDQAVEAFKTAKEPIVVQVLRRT
Sequence of Scribble PDZ1 (Homo sapiens) (Q14160 725-818): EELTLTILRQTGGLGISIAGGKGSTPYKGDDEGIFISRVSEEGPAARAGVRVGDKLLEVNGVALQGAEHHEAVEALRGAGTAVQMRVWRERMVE
Sequence of MBP-fused PDZ domain of ARHGEF12 (human) (Q9NZN5 72-151): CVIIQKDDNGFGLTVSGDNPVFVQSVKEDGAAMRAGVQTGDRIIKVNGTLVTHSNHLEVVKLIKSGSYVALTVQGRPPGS

Usually Kd stands for the equilibrium constant for the complex coming apart. For “PDZ domain of GRASP (from UniProt Q7Z6J2 101-190) (domain or fragment)”, in assay [1], the Kd was greater than 100 µM. In assay [2], the BI amounted to 0.29 and the Kd turned out to be 38.8 µM.
In assay [1], “PDZ domain of SHROOM2 (from UniProt Q13796 26-108) (domain or fragment)” registered a BI of 0.21 and a Kd of 60.8 µM. Further, the Kd in [2] is greater than 100 µM.
“MBP-fused PDZ domain of SNTG2 (from UniProt Q9NY99 73-156) (domain or fragment)”: the figures for the BI in [1] and in assay [2] were 0.52 and 0.41, respectively. The figures for the Kd in [1], in [2] and in assay [3] were 13.8 µM, 22.1 µM and 37 µM, respectively.
The substance “MBP-fused PDZ domain 3 of PDZD7 (from UniProt Q9H5P4 862-934) (domain or fragment)” came in with a BI in [1] of 0.15. The Kd in assay [1] is 92.9 µM; in [4] it was 6.2 µM.
In [1], “PDZ domain 2 of DLG4 (from UniProt P78352 160-246) (domain or fragment)” yielded a BI of 0.25. In [2], this substance registered a BI of 0.11 and a Kd greater than 100 µM.
Regarding “MBP-fused PDZ domain of SNTB1 (from UniProt Q13884 112-195) (domain or fragment)”, the results for the BI in assay [1] and in assay [2] were 0.45 and 0.22, respectively. Further, the figures for the Kd in [1], in assay [2] and in assay [3] were 18.6 µM, 57.2 µM and 48 µM, respectively.
Substance “PDZ domain of ARHGEF11 (from UniProt O15085 47-126) (domain or fragment)” gave a Kd in [1] greater than 100 µM. In assay [2], this substance gave a BI of 0.28 and a Kd of 40.8 µM.
As to “MBP-fused PDZ domain 2 of GRID2IP (from UniProt A4D2P6 279-356) (domain or fragment)”, the Kd in assay [1] is greater than 100 µM; in [2] it was 7.1 µM; in assay [4] it was 3.96 µM. Besides, the BI in assay [2] was determined as 0.67.
For “PDZ domain 1 of GRID2IP (from UniProt A4D2P6 3-84) (domain or fragment)”, in [1], the BI was found to be 0.24 and the Kd amounted to 50.8 µM. This substance also came in with a Kd in assay [2] greater than 100 µM.
Consider “MBP-fused second PDZ domain of MAGI1 (from UniProt Q96QZ7 472-554) (domain or fragment)”, for which the BI worked out at 0.15 in assay [1] and 0.43 in assay [2]. In addition, the values for the Kd in [1] and in assay [2] were 92.9 µM and 20.3 µM, respectively.
On to HPV16 E6 PBM (from UniProt P03126), for which the Kd in assay [5] is 7.5 µM.
In assay [1], “MBP-fused PDZ domain of SNTA1 (from UniProt Q13424 87-170) (domain or fragment)” displayed a BI of 0.53 and a Kd of 13.2 µM. In assay [2], this substance displayed a BI of 0.31 and a dissociation constant Kd of 35.1 µM.
The like results for “MBP-fused PDZ domain of HTRA1 (from UniProt Q92743 365-467) (domain or fragment)” were, in that order, 0.36, 27.7 µM, 0.44 and 19.4 µM.
With “PDZ domain 2 of NHERF2 (from UniProt Q15599 150-230) (domain or fragment)”, the Kd in [1] is greater than 100 µM; in [2] it was 64.8 µM.
With “PDZ domain of PPP1R9A (from UniProt Q9ULJ8 504-592) (domain or fragment)”, in [1], the BI is 0.33 and the Kd came to 31.8 µM. Moreover, the Kd in assay [2] was greater than 100 µM.
In the same order, the values of “PDZ domain of LIMK2 (from UniProt P53671 152-239) (domain or fragment)” are 0.22, 57.2 µM and greater than 100 µM.
Substance “PDZ domain of SHANK3 (from UniProt Q9BYB0 646-740) (domain or fragment)” showed a Kd in [1] greater than 100 µM. Moreover, the BI in [2] was 0.27.
In assay [1], “MBP-fused PDZ domain 2 of MAGI2 (from UniProt Q86UL8 426-510) (domain or fragment)” registered a BI of 0.23 and a Kd of 53.8 µM. In [2], this substance yielded a BI of 0.42 and a dissociation constant Kd of 21.2 µM.
In assay [1], “PDZ domain 3 of LNX1 (from UniProt Q8TBB1 507-593) (domain or fragment)” showed a BI of 0.24 and a Kd of 50.8 µM. In assay [2], this substance gave a Kd greater than 100 µM.
Consider “MBP-fused PDZ domain of SYNJ2BP (from UniProt P57105 13-100) (domain or fragment)”, for which the BI worked out at 0.54 in assay [1] and 0.26 in assay [2]. Also, the Kd in [1] was found to be 12.6 µM; in assay [2] it was 45.4 µM; in assay [3] it was 25 µM.
For the substance “PDZ domain 3 of DFNB31 (from UniProt Q9P202 816-899) (domain or fragment)”, the results for the Kd in [1] and in assay [2] were greater than 100 µM and 53.8 µM, respectively. Further, the BI in [2] was found to be 0.23.
For the substance “MBP-fused PDZ domain of ARHGEF12 (from UniProt Q9NZN5 72-151) (domain or fragment)”, the Kd in assay [1] is greater than 100 µM; in [2], 4.2 µM; in assay [4] it was 2.79 µM. Further, the BI in assay [2] is 0.77.
As for “PDZ domain of GORASP1 (domain or fragment)”, the dissociation constant (Kd) in [2] is greater than 100 µM.
With “MBP-fused PDZ domain 1 of NHERF3 (from UniProt Q5T2W1 9-90) (domain or fragment)”, the results for the Kd in assay [1] and in assay [2] were greater than 100 µM and 22.1 µM, respectively. In addition, the BI in [2] turned out to be 0.41.
Take “MBP-fused PDZ domain of MAST2 (from UniProt Q6P0Q8 1104-1192) (domain or fragment)”: the BI in assay [1] came to 0.23; in assay [2], 0.74. Moreover, the Kd amounted to 53.8 µM in assay [1] and 7.02 µM in assay [4].
Consider “MBP-fused PDZ domain 1 of PDZRN3 (from UniProt Q9UPQ7 249-339) (domain or fragment)”, for which, in assay [1], the BI came out at 0.45 and the dissociation constant (Kd) is 18.6 µM. In assay [2], this substance registered a BI of 0.26 and a Kd of 45.4 µM.
In assay [1], “PDZ domain of PTPN3 (from UniProt P26045 510-582) (domain or fragment)” had a BI of 0.21 and a Kd of 60.8 µM. In [2], this substance gave a Kd greater than 100 µM.
In the same order, the values of “PDZ domain of LAP2 (from UniProt Q96RT1 1321-1410) (domain or fragment)” are 0.28, 40.8 µM and greater than 100 µM.
“MBP-fused PDZ domain of MAST1 (from UniProt Q9Y2H9 967-1055) (domain or fragment)”: the Kd in assay [1] was greater than 100 µM; in assay [2], 11.1 µM. In addition, in assay [2], the BI was found to be 0.57.
As to “RSK1 683-735 peptide, unphosphorylated (from UniProt Q15418 683-735)”, the Kd in assay [6] was 27 µM; in assay [7], greater than 100 µM; in assay [8], greater than 100 µM; in assay [9], 6.6 µM.
